Test system: Escherichia coli TOP10
Experiment: shrunken log2 fold change of peptide-encoding DNA abundance (4.5 h post-induction vs induction); higher = less antimicrobial activity (less host growth inhibition)
Settings: time post-induction: 4.5 h; library: site-saturation at positions 5, 18, 19, 20
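Further: peptides expressed intracellularly from a pBAD plasmid library in pooled LB shake-flask culture, induced with 0.3% L-arabinose, DNA abundance read by NGS, three biological replicates, DESeq2 with apeglm shrinkage.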

Sequence	shrunken log2 fold change
RRIRLRPPRLPRPRPRPSCKPRP	0.0208
RRIRLRPPRLPRPRPRPSCPPRP	-0.169
RRIRLRPPRLPRPRPRPSDDPRP	-0.34
RRIRLRPPRLPRPRPRPSGHPRP	-0.208
RRIRLRPPRLPRPRPRPSHKPRP	-0.354
RRIRLRPPRLPRPRPRPSIHPRP	-0.619
RRIRLRPPRLPRPRPRPSLSPRP	-0.305
RRIRLRPPRLPRPRPRPSPHPRP	-0.242
RRIRLRPPRLPRPRPRPSQCPRP	-0.114
RRIRLRPPRLPRPRPRPSTAPRP	-1.05
RRIRLRPPRLPRPRPRPSVGPRP	0.101
RRIRLRPPRLPRPRPRPSVIPRP	-0.183
RRIRLRPPRLPRPRPRPSWFPRP	-0.237
RRIRLRPPRLPRPRPRPSWSPRP	0.0192
RRIRLRPPRLPRPRPRPSYDPRP	-0.292
RRIRLRPPRLPRPRPRPSYNPRP	-0.588
RRIRLRPPRLPRPRPRPSYSPRP	-0.589
RRIRLRPPRLPRPRPRPSYTPRP	-0.792
RRIRLRPPRLPRPRPRPSYWPRP	-0.651
RRIRLRPPRLPRPRPRPTAPPRP	0.645
RRIRLRPPRLPRPRPRPTAQPRP	0.104
RRIRLRPPRLPRPRPRPTDTPRP	-0.304
RRIRLRPPRLPRPRPRPTDYPRP	-0.286
RRIRLRPPRLPRPRPRPTGDPRP	-0.00286
RRIRLRPPRLPRPRPRPTHIPRP	-0.148

Sequence	shrunken log2 fold change
RRIRLRPPRLPRPRPRPTIEPRP	0.033
RRIRLRPPRLPRPRPRPTKAPRP	0.0258
RRIRLRPPRLPRPRPRPTLDPRP	0.0159
RRIRLRPPRLPRPRPRPTMLPRP	-0.335
RRIRLRPPRLPRPRPRPTMNPRP	-0.362
RRIRLRPPRLPRPRPRPTMTPRP	-0.256
RRIRLRPPRLPRPRPRPTMVPRP	-0.0972
RRIRLRPPRLPRPRPRPTNAPRP	0.00567
RRIRLRPPRLPRPRPRPTNKPRP	-0.264
RRIRLRPPRLPRPRPRPTNYPRP	-0.251
RRIRLRPPRLPRPRPRPTPCPRP	0.152
RRIRLRPPRLPRPRPRPTPFPRP	0.253
RRIRLRPPRLPRPRPRPTPKPRP	0.137
RRIRLRPPRLPRPRPRPTPWPRP	0.381
RRIRLRPPRLPRPRPRPTQHPRP	0.218
RRIRLRPPRLPRPRPRPTQKPRP	0.194
RRIRLRPPRLPRPRPRPTQWPRP	0.453
RRIRLRPPRLPRPRPRPTRIPRP	-0.141
RRIRLRPPRLPRPRPRPTVGPRP	0.0924
RRIRLRPPRLPRPRPRPTWYPRP	-0.221
RRIRLRPPRLPRPRPRPTYGPRP	-0.0237
RRIRLRPPRLPRPRPRPVAAPRP	0.382
RRIRLRPPRLPRPRPRPVANPRP	-0.0731
RRIRLRPPRLPRPRPRPVAVPRP	0.0513
RRIRLRPPRLPRPRPRPVCDPRP	-0.0188

Sequence	shrunken log2 fold change
RRIRLRPPRLPRPRPRPVCIPRP	-0.498
RRIRLRPPRLPRPRPRPVCSPRP	-0.14
RRIRLRPPRLPRPRPRPVCVPRP	-0.115
RRIRLRPPRLPRPRPRPVDAPRP	0.243
RRIRLRPPRLPRPRPRPVDIPRP	-0.183
RRIRLRPPRLPRPRPRPVETPRP	0.217
RRIRLRPPRLPRPRPRPVGFPRP	0.212
RRIRLRPPRLPRPRPRPVGIPRP	0.102
RRIRLRPPRLPRPRPRPVHEPRP	0.0233
RRIRLRPPRLPRPRPRPVHYPRP	-0.498
RRIRLRPPRLPRPRPRPVLWPRP	0.389
RRIRLRPPRLPRPRPRPVMDPRP	-0.0398
RRIRLRPPRLPRPRPRPVMKPRP	-0.13
RRIRLRPPRLPRPRPRPVNDPRP	-0.52
RRIRLRPPRLPRPRPRPVNRPRP	0.199
RRIRLRPPRLPRPRPRPVQDPRP	-0.105
RRIRLRPPRLPRPRPRPVQIPRP	0.364
RRIRLRPPRLPRPRPRPVQRPRP	0.134
RRIRLRPPRLPRPRPRPVQSPRP	-0.031
RRIRLRPPRLPRPRPRPVRIPRP	0.115
RRIRLRPPRLPRPRPRPVSVPRP	-0.118
RRIRLRPPRLPRPRPRPVTEPRP	0.0237
RRIRLRPPRLPRPRPRPVVMPRP	-0.282
RRIRLRPPRLPRPRPRPVWFPRP	0.00279
RRIRLRPPRLPRPRPRPVYHPRP	-0.856

Sequence	shrunken log2 fold change
RRIRLRPPRLPRPRPRPVYRPRP	-0.548
RRIRLRPPRLPRPRPRPWAFPRP	0.00977
RRIRLRPPRLPRPRPRPWCLPRP	-0.317
RRIRLRPPRLPRPRPRPWCQPRP	-0.0199
RRIRLRPPRLPRPRPRPWCVPRP	-0.35
RRIRLRPPRLPRPRPRPWDDPRP	-0.208
RRIRLRPPRLPRPRPRPWDGPRP	-0.153
RRIRLRPPRLPRPRPRPWETPRP	0.0162
RRIRLRPPRLPRPRPRPWFGPRP	-0.149
RRIRLRPPRLPRPRPRPWGSPRP	0.103
RRIRLRPPRLPRPRPRPWHMPRP	0.041
RRIRLRPPRLPRPRPRPWHQPRP	0.0225
RRIRLRPPRLPRPRPRPWIMPRP	-0.224
RRIRLRPPRLPRPRPRPWLSPRP	-0.0106
RRIRLRPPRLPRPRPRPWMKPRP	-0.249
RRIRLRPPRLPRPRPRPWMQPRP	0.0547
RRIRLRPPRLPRPRPRPWMSPRP	-0.55
RRIRLRPPRLPRPRPRPWMVPRP	-0.263
RRIRLRPPRLPRPRPRPWPWPRP	0.0352
RRIRLRPPRLPRPRPRPWPYPRP	-0.127
RRIRLRPPRLPRPRPRPWQRPRP	-0.161
RRIRLRPPRLPRPRPRPWRKPRP	0.125
RRIRLRPPRLPRPRPRPWRLPRP	0.0799
RRIRLRPPRLPRPRPRPWRPPRP	0.105
RRIRLRPPRLPRPRPRPWRWPRP	0.0385

Sequence	shrunken log2 fold change
RRIRLRPPRLPRPRPRPWTSPRP	-0.384
RRIRLRPPRLPRPRPRPWVDPRP	-0.0575
RRIRLRPPRLPRPRPRPWVNPRP	-0.271
RRIRLRPPRLPRPRPRPWYDPRP	-0.309
RRIRLRPPRLPRPRPRPWYYPRP	-0.266
RRIRLRPPRLPRPRPRPYADPRP	-0.135
RRIRLRPPRLPRPRPRPYCCPRP	-1.03
RRIRLRPPRLPRPRPRPYDRPRP	-0.0202
RRIRLRPPRLPRPRPRPYEEPRP	-0.274
RRIRLRPPRLPRPRPRPYEPPRP	-0.0278
RRIRLRPPRLPRPRPRPYFWPRP	-0.0237
RRIRLRPPRLPRPRPRPYGHPRP	2.49
RRIRLRPPRLPRPRPRPYGMPRP	-0.0242
RRIRLRPPRLPRPRPRPYGRPRP	-0.2
RRIRLRPPRLPRPRPRPYHEPRP	-1.6
RRIRLRPPRLPRPRPRPYHIPRP	-0.713
RRIRLRPPRLPRPRPRPYHPPRP	-0.00992
RRIRLRPPRLPRPRPRPYHSPRP	-0.018
RRIRLRPPRLPRPRPRPYINPRP	-0.584
RRIRLRPPRLPRPRPRPYKAPRP	-0.112
RRIRLRPPRLPRPRPRPYLGPRP	-0.425
RRIRLRPPRLPRPRPRPYMPPRP	-0.509
RRIRLRPPRLPRPRPRPYPEPRP	-0.201
RRIRLRPPRLPRPRPRPYSAPRP	-0.693
RRIRLRPPRLPRPRPRPYSCPRP	-0.458

Sequence	shrunken log2 fold change
RRIRLRPPRLPRPRPRPYSIPRP	0.0705
RRIRLRPPRLPRPRPRPYSRPRP	0.0264
RRIRLRPPRLPRPRPRPYTRPRP	-0.0648
RRIRLRPPRLPRPRPRPYVMPRP	-0.194
RRIRLRPPRLPRPRPRPYVTPRP	-0.169
RRIRLRPPRLPRPRPRPYVWPRP	-0.872
RRIRLRPPRLPRPRPRPYWEPRP	-0.0613
RRIRLRPPRLPRPRPRPYWFPRP	-0.758
RRIRLRPPRLPRPRPRPYWVPRP	0.135
RRIRLRPPRLPRPRPRPYYWPRP	-0.172
RRIRMRPPRLPRPRPRPAAHPRP	0.531
RRIRMRPPRLPRPRPRPAARPRP	0.975
RRIRMRPPRLPRPRPRPACKPRP	0.484
RRIRMRPPRLPRPRPRPAFSPRP	0.0185
RRIRMRPPRLPRPRPRPAGQPRP	-0.00902
RRIRMRPPRLPRPRPRPAHDPRP	0.673
RRIRMRPPRLPRPRPRPAHRPRP	0.444
RRIRMRPPRLPRPRPRPAHVPRP	0.176
RRIRMRPPRLPRPRPRPAIWPRP	1.36
RRIRMRPPRLPRPRPRPAKLPRP	0.441
RRIRMRPPRLPRPRPRPAKSPRP	0.261
RRIRMRPPRLPRPRPRPALKPRP	1.09
RRIRMRPPRLPRPRPRPALRPRP	0.851
RRIRMRPPRLPRPRPRPALVPRP	0.327
RRIRMRPPRLPRPRPRPAMMPRP	0.59

From the supplement of paper PMC9112550, “Optimization of the antimicrobial peptide Bac7 by deep mutational scanning” (BMC Biology, 2022)
